Results taken from the supplement of paper PMC11246515.
± gives the standard deviation of the averaged measurements.

Experiment: total protein half-life in vivo (active degradation + dilution); higher = more stable protein
[1] = E. coli NCM3722 delta-clpP, growth: N-lim chemostat, doubling time 6 h
[2] = wild type E. coli NCM3722, growth: C-lim chemostat, doubling time 12 h
[3] = wild type E. coli NCM3722, growth: N-lim chemostat, doubling time 6 h
[4] = wild type E. coli NCM3722, growth: P-lim chemostat, doubling time 6 h
[5] = wild type E. coli NCM3722, growth: P-lim chemostat, doubling time 12 h
[6] = E. coli NCM3722 delta-clpP delta-lon delta-hslV, growth: N-lim chemostat, doubling time 6 h
[7] = E. coli NCM3722 delta-hslV, growth: N-lim chemostat, doubling time 6 h
[8] = E. coli NCM3722 delta-smpB, growth: N-lim chemostat, doubling time 6 h
[9] = wild type E. coli NCM3722, growth: C-lim chemostat, doubling time 3 h
[10] = wild type E. coli NCM3722, growth: C-lim chemostat, doubling time 6 h
[11] = wild type E. coli NCM3722, growth: N-lim chemostat, doubling time 12 h

Sequence | total protein half-life in vivo [1] [h] | total protein half-life in vivo [2] [h] | total protein half-life in vivo [3] [h] | total protein half-life in vivo [4] [h] | total protein half-life in vivo [5] [h] | total protein half-life in vivo [6] [h] | total protein half-life in vivo [7] [h] | total protein half-life in vivo (E. coli NCM3722 delta-lon, growth: N-lim chemostat, doubling time 6 h) [h] | total protein half-life in vivo [8] [h] | total protein half-life in vivo [9] [h] | total protein half-life in vivo [10] [h] | total protein half-life in vivo [11] [h]
MLIGYVRVSTNDQNTDLQRNALNCAGCELIFEDKISGTKSERPGLKKLLRTLSAGDTLVVWKLDRLGRSMRHLVVLVEELRERGINFRSLTDSIDTSTPMGRFFFHVMGALAEMERELIVERTKAGLETARAQGRIGGRRPKLTPEQWAQAGRLIAAGTPRQKVAIIYDVGVSTLYKRFPAGDK | 6.3 | 5.3 | 6.47 | 6.11 | 12.2 ± 1.1 | – | – | – | – | – | – | –
MLIIETLPLLRQQIRRLRMEGKRVALVPTMGNLHDGHMKLVDEAKARADVVVVSIFVNPMQFDRPEDLARYPRTLQEDCEKLNKRKVDLVFAPSVKEIYPNGTETHTYVDVPGLSTMLEGASRPGHFRGVSTIVSKLFNLVQPDIACFGEKDFQQLALIRKMVADMGFDIEIVGVPIMRAKDGLALSSRNGYLTAEQRKIAPGLYKVLSSIADKLQAGERDLDEIITIAGQELNEKGFRADDIQIRDADTLLEVSETSKRAVILVAAWLGDARLIDNKMVELA | 5.17 ± 0.93 | 11.8 ± 2.4 | 4.868 ± 0.016 | 5.774 ± 0.017 | 12.5 ± 0.45 | 5.42 ± 0.33 | 4.941 ± 0.045 | 5.34 ± 0.1 | 4.98 ± 0.26 | 3.1 ± 0.28 | 5.5 ± 0.056 | 8.38 ± 0.16
MLIIKRSVAIIAILFSPLSTASNLTSQLHNFFSAQLAGVSDEVRVSIRTAPNLLPPCEQPLLSMSNNSRLWGNVNVLARCGNDKRYLQVNVQATGNYVVAAMPIARGGKLEAGNVKLKRGRLDTLPPRTVLDINQLVDAISLRDLSPDQPIQLTQFRQAWRVKAGQRVNVIASGDGFSANAEGQALNNAAVAQNARVRMVSGQVVSGVVDADGNILINL | – | 2.23 | – | – | – | – | – | – | – | 0.905 ± 0.37 | – | –
MLIPSKLSRPVRLDHTVVRERLLAKLSGANNFRLALITSPAGYGKTTLISQWAAGKNDIGWYSLDEGDNQQERFASYLIAAVQQATNGHCAICETMAQKRQYASLTSLFAQLFIELAEWHSPLYLVIDDYHLITNPVIHESMRFFIRHQPENLTLVVLSRNLPQLGIANLRVRDQLLEIGSQQLAFTHQEAKQFFDCRLSSPIEAAESSRICDDVSGWATALQLIALSARQNTHSAHKSARRLAGINASHLSDYLVDEVLDNVDLATRHFLLKSAILRSMNDALITRVTGEENGQMRLEEIERQGLFLQRMDDTGEWFCYHPLFGNFLRQRCQWELAAELPEIHRAAAESWMAQGFPSEAIHHALAAGDALMLRDILLNHAWSLFNHSELSLLEESLKALPWDSLLENPQLVLLQAWLMQSQHRYGEVNTLLARAEHEIKDIREDTMHAEFNALRAQVAINDGNPDEAERLAKLALEELPPGWFYSRIVATSVLGEVLHCKGELTRSLALMQQTEQMARQHDVWHYALWSLIQQSEILFAQGFLQTAWETQEKAFQLINEQHLEQLPMHEFLVRIRAQLLWAWARLDEAEASARSGIEVLSSYQPQQQLQCLAMLIQCSLARGDLDNARSQLNRLENLLGNGKYHSDWISNANKVRVIYWQMTGDKAAAANWLRHTAKPEFANNHFLQGQWRNIARAQILLGEFEPAEIVLEELNENARSLRLMSDLNRNLLLLNQLYWQAGRKSDAQRVLLDALKLANRTGFISHFVIEGEAMAQQLRQLIQLNTLPELEQHRAQRILREINQHHRHKFAHFDENFVERLLNHPEVPELIRTSPLTQREWQVLGLIYSGYSNEQIAGELEVAATTIKTHIRNLYQKLGVAHRQDAVQHAQQLLKMMGYGV | – | 1.38 ± 0.18 | – | – | 1.36 | 6.02 ± 0.46 | 0.718 | – | 0.786 | 0.61 ± 0.1 | 1.05 ± 0.094 | 0.803
